Reference: patent US20070014810A1 (published 2007)

Molecular target: T1, HLA-A*2601 (human)
T1 construct: purified HLA molecule
Experiment: inhibition of 125I-labelled probe peptide binding to purified HLA, gel filtration; standard peptide

**Q.** Which IC50 does the source give for ETFGFEIQSY [standard peptide ETFGFEIQSY] here?
**A.** The IC50 was 1 nM.
